Assay results reported in FireProtDB (doi:10.1016/0022-2836(92)90562-x).

Conditions: Bacillus amyloliquefaciens; pH 6.3; 25 °C; Urea; Fluorescence; MES-NaOH 450 mM; reversible: yes; whole UniProt chain shown

B1: Ribonuclease wild type, P00648 (protein)
chain: MMKMEGIALKKRLSWISVCLLVLVSAAGMLFSTAAKTETSSHKAHTEAQVINTFDGVADYLQTYHKLPDNYITKSEAQALGWVASKGNLADVAPGKSIGGDIFSNREGKLPGKSGRTWREADINYTSGFRNSDRILYSSDWLIYKTTDHYQTFTKIR
What does the source list for B1?
denaturant m value: 1.93 kcal/mol/M; denaturant midpoint (higher = more stable): 4.57 M; unfolding free energy: 8.82 kcal/mol
